Results from article PMC6294567, “The C-terminal D/E-rich domain of MBD3 is a putative Z-DNA mimic that competes for Zα DNA-binding activity” (Nucleic Acids Research, 2018).
“And” between values parts separate entries of the source, which are not always exact repeats. Identical values can stand only once. Primed or numbered codes have the meaning given here. Where no end group is shown, it is not given here. FITC′ = fluorescein isothiocyanate label

Legend:
[1] = test system: replication protein A (RPA); settings: cited from earlier work
Source text: This is the first report to identify a particular protein sequence with D/E repeats capable of competition with Z-DNA for binding to Zα, while the potential of acidic residues for DNA mimicry, referring to B-DNA or ssDNA, have been observed previously.

His10-Zα = His10-Zα pull-down from HEK293 lysate with LC-MS/MS; assay type: binding, human; settings: HEK293 cell lysate, Ni beads
Protocol: HEK293 cells were collected and the pellet was resuspended in the lysis buffer [(50 mM Tris–HCl pH7.5, 1% NP-40, 150 mM NaCl, 10 mM imidazole, 0.1 mM PMSF, 90 U/ml Benzonaes (Novagen) and EDTA-free protease inhibitor cocktail tablet (Roche)]. Lysate was clarified by centrifugation for 30 min at 16 000 × g at 4°C. The protein concentration was measured by using Bradford assay. 20 mg of HEK293 cell lysate was pre-cleaned by adding 1 ml of Ni sepharose (50% slurry) (GE Healthcare) and rotated at 4°C for 1 h. Add 1 mg of purified His10-Zα protein (buffer only as a negative control) to the pre-cleaned lysate and rotate at 4°C overnight. To capture His10-Zα protein, add 0.2 ml Ni sepharose (50% slurry) and incubate at 4°C for 1 h in a rotation wheel. […] Add trichloroacetic acid to precipitate and concentrate the eluates. The concentrated eluates were resuspended in NuPAGE LDS sample buffer (Invitrogen), run on NuPAGE 12% Bis–Tris gels (Invotrogen) and stained using Instant Blue (Expedeon). […]
To identify Zα-interacting proteins, the entire gel lanes were divided into several horizontal slices and subjected to in-gel trypsin digestion. The digested samples were analyzed by LC–MS/MS using LTQ-Orbitrap XL mass spectrometer (Thermo Fisher Scientific, Bremen, Germany). […]

Zα [2] = biological target: T1, Zα (Homo sapiens, UniProt P55265); test: SEC / SDS-PAGE complex formation with Zα; assay type: binding; settings: Zα 100 μM : protein 25 μM (4:1), ice 1 h, 20 mM Tris–HCl pH 7.5, 50 mM NaCl, 1 mM TCEP
T1 construct: Zα of human ADAR1; residues 133–209; His6 (pMCSG7, followed by a TEV site) (N, cleaved yes); made in house; host or cells: E. coli BL21(DE3)
T1 sequence (P55265 133-209): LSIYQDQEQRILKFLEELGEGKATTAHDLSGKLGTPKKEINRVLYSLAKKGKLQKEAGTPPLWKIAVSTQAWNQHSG
Protocol: Equimolar amounts (0.1 mM) of Zα and DE-rich peptide were incubated on ice for 1 h in a buffer containing 20 mM HEPES–NaOH pH 7.5, 50 mM NaCl, 1 mM DTT. The mixture was then loaded on a Superdex 30 16/600 column (GE Healthcare) equilibrated in the same buffer. The fractions from the peaks corresponding to Zα alone and the complex of Zα and DE-rich peptide were collected and used for chemical cross-linking.
To analyze complex formation of Zα and other proteins (MBD3, MBD or MBDDE), the mixtures were incubated on ice for 1 h in a buffer containing 20 mM Tris–HCl pH 7.5, 50 mM NaCl, 1 mM TCEP. The mixture was then loaded on a Superdex 75 or Superdex 200 increase 10/300 column (GE Healthcare).

[3] = Stability of E. coli-expressed protein; assay type: physicochemical; settings: recombinant E. coli-expressed protein
[4] = biological target: T2, MBD domain of MBD3 (residues 1–72), tag-free (human, UniProt O95983-1 1-72); test: FP
T2 chain: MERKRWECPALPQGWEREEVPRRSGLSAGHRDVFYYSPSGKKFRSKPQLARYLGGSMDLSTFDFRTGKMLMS

[5] = biological target: T3, Zα, tag-free (Z-DNA binding domain of human ADAR1, residues 133-209) (human, UniProt P55265 133-209); test: fluorescence polarisation; FITC-labelled D/E-rich peptide against titrated protein; 20 mM HEPES-NaOH pH 7.5, 50 mM NaCl, 1 mM DTT; one-site total binding model; settings: both partners purified
T3 construct: Zα domain of human ADAR1, residues 133-209; from pMCSG7-Zα; source: E. coli BL21(DE3), purified (Ni-NTA, TEV cleavage, reverse Ni-NTA, gel filtration); not shown: His6, N-terminal, cleaved
T3 sequence (looked up): T1 sequence (P55265 133-209)

Sso7d [6] = biological target: T4, Sso7d (UniProt P39476 1-64); test: as above; settings: both partners purified
T4 sequence (looked up): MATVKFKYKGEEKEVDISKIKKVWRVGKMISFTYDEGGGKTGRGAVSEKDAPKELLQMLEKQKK

Zα [7] = biological target: T1, Zα; test: SEC-MALS of Zα and Zα-D/E-rich peptide complexes; assay type: binding; settings: Zα 2.7 mg/ml, expected ~8.8
Protocol: SEC−MALS measurements were conducted using a miniDAWN TREOS detector and an Optilab T-rEX differential refractive index detector (Wyatt Technology Corporation) coupled to an Agilent 1260 Infinity HPLC system. The SEC experiments were performed on an ENrich SEC 70 10 × 300 column (Bio-Rad) equilibrated in a buffer containing 20 mM HEPES–NaOH pH 7.5, 50 mM NaCl, 1 mM TCEP and 0.02% NaN3. The protein Zα alone (2.7 mg/ml) or the mixture of Zα and the D/E-rich peptide at various molar ratios and incubation periods as indicated was loaded onto the column at a flow rate of 0.5 ml/min. Bovine serum albumin (A1900; Sigma) was used for system calibration and molecular weights were calculated using ASTRA 6 software (Wyatt Technology Corporation) with a dn/dc value of 0.185 ml/g.
Figure 3. Analysis of complex formation of Zα and the D/E-rich domain. […] The left y axis represents the normalized UV absorbance at 280 nm, while the right y axis represents the molecular weight (Da). The horizontal traces show the calculated molecular weight. […] TEXT PRINTED IN THE PICTURE: (C) Zα: Measured MW (kDa): 9.8 ± 0.1; Expected MW (kDa): ~8.8 | (C) 1Zα: 1DE: Measured MW (kDa): 12.7 ± 0.1; Expected MW (kDa): ~11.6 | (C) 2Zα: 1DE: Measured MW (kDa): 20.8 ± 0.3; Expected MW (kDa): ~20.5

d(CG)6 duplex = test: Circular dichroism of d(CG)6 DNA conformation
Protocol: CD spectra were measured at 24°C on a J-815 Spectrometer (JASCO) using a 1 mm path length quartz cell. Prepare 7.5 μM DNA duplex in a buffer consisting of 5 mM HEPES–NaOH pH 7.5, 25 mM NaCl and 1 mM DTT, and in the absence or presence of indicated concentration of proteins. Spectra were recorded between 235 and 305 nm wavelength with a data pitch of 1 nm, bandwidth of 1 nm and with two accumulations at a scanning speed of 10 nm/min.
Figure 6. Zα can compete with the MBD domain for binding to d(CG)6, but not vice versa. (A) CD spectra of the d(CG)6 duplex in the presence of Zα. CD spectra of (B) the d(CG)6 and (C) the d(C^mG)6 duplex, respectively, in the presence of the MBD domain. (D) Monitoring of the change in CD spectra with the addition of increased amounts of Zα to the pre-incubated mixture of the MBD domain and d(CG)6. (E) Monitoring of the change in CD spectra with the addition of increased amount of the MBD domain to the pre-incubated mixture of Zα and d(CG)6. Spectra are expressed in absolute values of ellipticity in millidegrees (mdeg).

[8] = biological target: D/E-rich peptide of MBD3, unlabelled (full-length D/E-rich peptide) (human); test: SEC-MALS; Zα and D/E-rich peptide, equimolar (1, 16, 29 h) or 4:1 (1 h on ice); ENrich SEC 70 column; 20 mM HEPES-NaOH pH 7.5, 50 mM NaCl, 1 mM TCEP, 0.02% NaN3
[9] = biological target: MBD3 MBD domain (MBD3MBD) (Homo sapiens, UniProt O95983 1-72); test: fluorescence polarization; high affinity similar to Zα; Kd value not in material; FP: 20 mM HEPES-NaOH pH 7.5, 50 mM NaCl, 1 mM DTT, 30 ul; temperature not stated; CD buffer not in material; settings: protein: recombinant; tags: His6 removed by TEV; unlabelled version also purchased; blunt; self-complementary duplex, annealed from 85°C
Sso7d [10] = biological target: T5, Sso7d (UniProt P39476 2-64); test: fluorescence polarization; FP: 20 mM HEPES-NaOH pH 7.5, 50 mM NaCl, 1 mM DTT, 30 ul; temperature not stated; CD buffer not in material; settings: unlabelled version also purchased; blunt; self-complementary duplex, annealed from 85°C
T5 sequence: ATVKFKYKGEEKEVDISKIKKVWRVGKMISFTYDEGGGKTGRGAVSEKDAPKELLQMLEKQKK

[11] = biological target: T6, Zα (Z-DNA binding domain of ADAR1) (Homo sapiens, UniProt P55265 133-209); test: as above; settings: protein: recombinant; tags: His10 (pET16b) or tag-free after TEV (pMCSG7); chain copies: 2; unlabelled version also purchased; blunt; self-complementary duplex, annealed from 85°C
T6 sequence: T1 sequence (P55265 133-209)

Molecule: EDWAGLDEDED [DSS1, protein whose D/E-rich segment (EDWAGLDEDED) acts as a DNA mimic]
- attenuation of the affinity of RPA for ssDNA [1]: acts as a DNA mimic to attenuate the affinity of replication protein A (RPA) for ssDNA

B1: MBD3: full-length human MBD3; residue 1–291 (protein)
chain: MERKRWECPALPQGWEREEVPRRSGLSAGHRDVFYYSPSGKKFRSKPQLARYLGGSMDLSTFDFRTGKMLMSKMNKSRQRVRYDSSNQVKGKPDLNTALPVRQTASIFKQPVTKITNHPSNKVKSDPQKAVDQPRQLFWEKKLSGLNAFDIAEELVKTMDLPKGLQGVGPGCTDETLLSAIASALHTSTMPITGQLSAAVEKNPGVWLNTTQPLCKAFMVTDEDIRKQEELVQQVRKRLEEALMADMLAHVEELARDGEAPLDKACAEDDDEEDEEEEEEEPDPDPEMEHV
- pull-down by Zα (His10-Zα): could be pulled down by Zα
- complex formation with Zα on SEC (Zα [2]): almost no detectable stable complex formation of Zα and MBD3
- protein stability (in words) [3]: unstable with a large amount of aggregation and degradation

Molecule: {FITC′}-DKACAEDDDEEDEEEEEEEPDPDP [D/E-rich peptide of MBD3, FITC-labelled]
- Kd [4]: 21.2 nM
- Kd [5]: 29.1 ± 1.7 nM
- Kd (Sso7d [6]): 1100 ± 200 nM

B2: Zα, tag-free (Z-DNA binding domain of human ADAR1, residues 133-209), P55265 133-209 (domain or fragment)
chain: T1 sequence (P55265 133-209)
- measured MW, Zα alone (Zα [7]): 9.8 ± 0.1 kDa
- DNA conformation after binding (d(CG)6 duplex; CD 235-305 nm, 24°C, 7.5 μM DNA duplex, 5 mM HEPES–NaOH pH 7.5, 25 mM NaCl, 1 mM DTT): induced the Z-DNA formation
- competition for binding to d(CG)6 (Zα added to pre-incubated MBD domain and d(CG)6) (d(CG)6 duplex; CD, increasing Zα): able to compete with the MBD domain for binding to d(CG)6
- stoichiometry N (Zα per D/E-rich peptide) [8]: 2 and 1

B3: d(CG)6 (dsDNA)
DNA 1: CGCGCGCGCGCG
DNA 2: CGCGCGCGCGCG
- binding result [9]: binds
- Kd (Sso7d [10]): 262 ± 23 nM
- Kd [11]: 40.3 ± 3.2 nM
